These results are taken from publication PMC3792862, “Structure of UreG/UreF/UreH Complex Reveals How Urease Accessory Proteins Facilitate Maturation of Helicobacter pylori Urease” (PLoS Biology, 2013).

To fix the notation:
T1: HisGST-UreF/UreH complex (Helicobacter pylori, UniProt Q09065 1-254; Q09067 1-265)
T1 construct: UreF, urease accessory protein of Helicobacter pylori; UreH, urease accessory protein of Helicobacter pylori; also called wild-type HisGST-UreF (with UreH)
T1 sequence 1: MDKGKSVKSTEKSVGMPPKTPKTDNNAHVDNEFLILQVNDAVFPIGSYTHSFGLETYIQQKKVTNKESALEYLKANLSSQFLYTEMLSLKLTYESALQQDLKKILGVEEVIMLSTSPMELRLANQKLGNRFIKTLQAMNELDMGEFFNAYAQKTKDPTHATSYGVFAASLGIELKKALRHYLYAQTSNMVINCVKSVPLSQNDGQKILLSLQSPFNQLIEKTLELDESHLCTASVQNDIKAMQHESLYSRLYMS
T1 sequence 2: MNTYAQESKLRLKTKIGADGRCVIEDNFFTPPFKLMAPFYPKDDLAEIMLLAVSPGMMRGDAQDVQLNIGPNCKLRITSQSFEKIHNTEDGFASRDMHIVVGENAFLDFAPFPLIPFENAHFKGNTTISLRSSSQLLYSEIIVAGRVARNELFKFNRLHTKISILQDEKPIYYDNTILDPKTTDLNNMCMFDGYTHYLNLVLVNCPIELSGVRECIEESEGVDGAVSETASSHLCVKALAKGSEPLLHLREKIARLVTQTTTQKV

T2: UreH (Helicobacter pylori, UniProt Q09067 1-265)
T2 construct: UreH, urease accessory protein of Helicobacter pylori; The UreH chain of m6 to m9; also called UreH (ortholog of UreD)
T2 sequence: T1 sequence 2

B1: UreG (natural protein)
chain: MVKIGVCGPVGSGKTALIEALTRHMSKDYDMAVITNDIYTKEDAEFMCKNSVMPRERIIGVETGGCPHTAIREDASMNLEAVEEMHGRFPNLELLLIESGGDNLSATFNPELADFTIFVIDVAEGDKIPRKGGPGITRSDLLVINKIDLAPYVGADLKVMERDSKKMRGEKPFIFTNIRAKEGLDDVIAWIKRNALLED
notes: UreG, urease accessory protein (SIMIBI class GTPase) of Helicobacter pylori; Monomer in solution unless nickel and GTP (or free zinc) are present; two copies in the crystal of the UreG/UreF/UreH complex; also called apo-UreG; wild-type UreG; source: E. coli, purified (HisTrap, tag cleaved with SENP1C, second HisTrap, Superdex 75; dialysed with 5 mM EDTA)
B2: UreF/UreH complex (complex)
chain 1: T1 sequence 1
chain 2: T1 sequence 2
notes: UreF, urease accessory protein of Helicobacter pylori; UreH, urease accessory protein of Helicobacter pylori (ortholog of UreD); also called (UreF/UreH)2; wild-type UreF/UreH complex; copies: 2 + 2
B3: UreF (natural protein)
chain: T1 sequence 1
notes: UreF, urease accessory protein of Helicobacter pylori; The UreF chain of m6, for the rows of two chains that touch; also called UreF protomer; UreF chain A

Data set [1] concerns the molecule itself. Nature of the data set: SEC-MALS; SEC/SLS; 40 µM UreG/UreF/UreH complex pre-incubated with 0.5 mM nickel and 1 mM GTP (2 mM magnesium sulfate); Superdex 200, phosphate-buffered saline; peaks analysed by SDS-PAGE. For orientation: In gel filtration, larger molecules generally elute earlier.
Data set [2] concerns the target B3. Nature of the data set: crystal structure; UreG/UreF/UreH complex with 5 mM GDP, 10 mM magnesium sulfate, 5 mM aluminum fluoride; 1.5 M ammonium sulfate, 100 mM sodium acetate pH 5.0, 16°C; GDP-bound state, 2.35 Å. The note with it: both partners purified.
For data set [3], the target named is B2. Described as above. The note with it: both partners purified.
For data set [4], the target named is T1, HisGST-UreF/UreH complex. Nature of the data set: pull-down; purified GST-UreF/UreH and excess UreG on GST SpinTrap, 30 min at 4°C; immobilised complex incubated with 1 mM GTP and 2 mM magnesium sulfate, washed with buffer C, eluted with glutathione; SDS-PAGE of wash and eluate. The note with it: both partners purified.
Data set [5] has as its target T2, UreH. Nature of the data set: crystal structure; UreG/UreF/UreH complex with 5 mM GDP, 10 mM magnesium sulfate, 5 mM aluminum fluoride; 1.5 M ammonium sulfate, 100 mM sodium acetate pH 5.0, 16°C; GDP-bound state, 2.35 Å. The note with it: both partners purified.
Data set [6] deals with the molecule itself. The data set is described as above.

Usually stoichiometry N stands for a count of units in the complex or per binding partner. Regarding B1, in data set [1], the “stoichiometry N” value is 2. The binding result in data set [2], in data set [3] and in data set [4] was “binds” in each case.

On to B2, for which the “stoichiometry N” value in data set [1] was 2.

In the case of B3, the binding result in data set [5] and in data set [6] was “binds” each time.
